Consider 2 molecules from patent US20230091105A1 (NORTHWESTERN UNIVERSITY, published 2023).

Test [1] concerns the target T1, Tie2 receptor on HUVEC (human, UniProt Q02763 23-1124).
T1 construct: whole, on cells; also called TEK; Tie2 receptor tyrosine kinase
The test can be described thus: summary sentence of Example 3 (co-IP and HUVEC activation).

Test [2] concerns the target T1, Tie2 receptor on HUVEC. The test can be described thus: cell-based or functional assay.

T1 sequence (Q02763 23-1124): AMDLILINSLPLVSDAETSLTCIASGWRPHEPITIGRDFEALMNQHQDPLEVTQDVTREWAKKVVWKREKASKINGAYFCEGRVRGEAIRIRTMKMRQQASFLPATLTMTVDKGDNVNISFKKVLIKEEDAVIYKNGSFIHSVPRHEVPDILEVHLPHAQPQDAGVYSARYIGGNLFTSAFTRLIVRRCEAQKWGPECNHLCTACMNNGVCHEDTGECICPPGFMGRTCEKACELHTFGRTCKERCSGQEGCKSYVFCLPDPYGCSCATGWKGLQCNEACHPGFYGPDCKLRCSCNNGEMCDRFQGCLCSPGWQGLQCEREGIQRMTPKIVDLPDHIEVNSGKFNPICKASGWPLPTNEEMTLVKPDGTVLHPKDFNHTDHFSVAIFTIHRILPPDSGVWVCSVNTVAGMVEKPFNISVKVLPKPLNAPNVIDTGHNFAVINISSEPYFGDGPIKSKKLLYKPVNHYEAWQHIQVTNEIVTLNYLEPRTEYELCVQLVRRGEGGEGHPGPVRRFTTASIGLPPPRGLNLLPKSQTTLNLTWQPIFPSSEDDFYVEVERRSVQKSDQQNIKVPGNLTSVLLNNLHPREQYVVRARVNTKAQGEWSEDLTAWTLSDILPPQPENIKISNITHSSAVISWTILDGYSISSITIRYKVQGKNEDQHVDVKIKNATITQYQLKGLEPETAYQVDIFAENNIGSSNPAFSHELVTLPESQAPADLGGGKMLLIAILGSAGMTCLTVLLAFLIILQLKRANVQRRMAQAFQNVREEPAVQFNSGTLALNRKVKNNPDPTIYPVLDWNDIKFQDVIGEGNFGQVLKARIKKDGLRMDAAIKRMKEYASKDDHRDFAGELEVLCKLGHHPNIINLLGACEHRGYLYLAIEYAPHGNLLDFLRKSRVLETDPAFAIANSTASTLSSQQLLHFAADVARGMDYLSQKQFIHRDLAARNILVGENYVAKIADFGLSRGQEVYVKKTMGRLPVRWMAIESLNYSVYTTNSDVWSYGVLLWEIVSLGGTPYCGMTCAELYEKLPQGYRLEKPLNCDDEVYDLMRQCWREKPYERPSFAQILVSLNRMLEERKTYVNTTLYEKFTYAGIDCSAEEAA

B1: C4BP-ANG1 (designed binder, not shown: small tags and cut ends)
chain: ETPEGCEQVLTGKRLMQCLPNPEDVKMALEVYKLSLEIEQLELQRDSARQSTLDKELGGGGSKPFRDCADVYQAGFNKSGIYTIYINNMPEPKKVFCNMDVNGGGWTVIQHREDGSLDFQRGWKEYKMGFGNPSGEYWLGNEFIFAITSQRQYMLRIELMDWEGNRAYSQYDRFHIGNEKQNYRLYLKGHTGTAGKQSSLILHGADFSTKDADNDNCMCKCALMLTGGWWFDACGPSNLNGMFYTAGQNHGKLNGIKWHYFKGPSYSLRSTTMMIRPLDF
notes: Heptamer through disulfide-bridged C4BP segment; also called C4BP-ANG1 chimeric fusion protein
Regarding B1, the binding result with Tie2 receptor on HUVEC [1] was “binds”.

B2: ANG1-C4BP (designed binder, not shown: small tags and cut ends)
chain: KPFRDCADVYQAGFNKSGIYTIYINNMPEPKKVFCNMDVNGGGWTVIQHREDGSLDFQRGWKEYKMGFGNPSGEYWLGNEFIFAITSQRQYMLRIELMDWEGNRAYSQYDRFHIGNEKQNYRLYLKGHTGTAGKQSSLILHGADFSTKDADNDNCMCKCALMLTGGWWFDACGPSNLNGMFYTAGQNHGKLNGIKWHYFKGPSYSLRSTTMMIRPLDFGGGGSETPEGCEQVLTGKRLMQCLPNPEDVKMALEVYKLSLEIEQLELQRDSARQSTLDKEL
Regarding B2, in the test with Tie2 receptor on HUVEC [2], the “phosphorylation level of AKT (pAKT) in HUVEC treated for 20 minutes, EC50” value was 87 ng/mL.
